Experimental data: publication PMC8158039

Molecular target: Recombinant human neonatal Fc receptor (FcRn) (human) (UniProt P55899)
Assay: SPR

fold of KD against adalimumab: 4 fold
Substance: Etanercept (from UniProt P20333 23-257) (Fc fusion)
